Data as given in PMC4609117.

B1: Ms0535p0 (dsDNA)
DNA 1: CACACCGCCTTGCATGCATTCTTGCATGCAAGGCGCGCTA
DNA 2: TAGCGCGCCTTGCATGCAAGAATGCATGCAAGGCGGTGTG
B2: Ms0535p2 (one IR mutated) (dsDNA)
DNA 1: CACACCGCCTTGCATGCATTCTCATGCATGGCCCGCGCTA
DNA 2: TAGCGCGGGCCATGCATGAGAATGCATGCAAGGCGGTGTG
B3: Ms0535p7 (both IRs mutated) (dsDNA)
DNA 1: CACACCGTTCCATGCATGTTCTCATGCATGGAACGCGCTA
DNA 2: TAGCGCGTTCCATGCATGAGAACATGCATGGAACGGTGTG
B4: Ms0535p1 (one IR mutated) (dsDNA)
DNA 1: CACACCGTTCCATGCATGTTCTTGCATGCAAGGCGCGCTA
DNA 2: TAGCGCGCCTTGCATGCAAGAACATGCATGGAACGGTGTG

Key:
[1] = molecular target: T1, Ms0535 (GntR family, FadR/VanR-like regulator) (Mycobacterium smegmatis mc2 155, UniProt A0QPV8 1-212); assay: EMSA; 0-4 uM protein; settings: protein: recombinant; tags: His-tag (pET28a); chain copies: 2; blunt
[2] = molecular target: T1, Ms0535 (GntR family, FadR/VanR-like …); assay: EMSA; 0-4 uM protein; only one shifted band; settings: protein: recombinant; tags: His-tag (pET28a); chain copies: 2; blunt

Binder	binding result [1]	binding result [2]
B1	binds	–
B2	–	binds
B3	no binding	–
B4	–	binds
